Laboratory results taken from patent publication US20260103513A1 (HEFEI TG IMMUNOPHARMA, published 2026).
Values belong to the binder of their own block, whether it stands above or below them.

Columns and labels:
[1] = target: T1, Human TIGIT-His tag fusion protein (human, UniProt Q495A1 22-141); assay: ELISA, human TIGIT-His coated, HRP anti-human IgG, OD450
T1 construct: extracellular domain; Bought (Acro); also called TIGIT extracellular domain-His tag fusion protein; TIGIT protein; not shown: His tag
T1 sequence (looked up): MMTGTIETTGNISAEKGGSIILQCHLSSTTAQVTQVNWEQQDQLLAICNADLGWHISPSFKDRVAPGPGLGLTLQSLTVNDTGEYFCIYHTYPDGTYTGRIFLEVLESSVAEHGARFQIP

[2] = target: T2, TIGIT protein overexpressed on cells (Homo sapiens (Human), UniProt Q495A1 22-244); assay: flow cytometry on 293T-TIGIT cells, Alexa-647 anti-human Fc, MFI
T2 construct: also called CHO-K1-TIGIT
T2 sequence: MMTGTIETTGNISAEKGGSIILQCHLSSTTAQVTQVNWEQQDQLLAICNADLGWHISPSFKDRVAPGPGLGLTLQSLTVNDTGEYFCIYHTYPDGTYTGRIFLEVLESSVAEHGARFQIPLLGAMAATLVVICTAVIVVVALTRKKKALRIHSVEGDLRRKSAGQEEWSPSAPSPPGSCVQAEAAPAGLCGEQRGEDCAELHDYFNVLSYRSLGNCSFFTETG

[3] = target: T3, Cynomolgus monkey TIGIT-His tag fusion protein (cynomolgus monkey, UniProt A0A7N9I9V4 89-209); assay: ELISA, cynomolgus TIGIT-His coated, HRP anti-human IgG, OD450
T3 construct: extracellular domain; Bought (Acro); also called TIGIT extracellular domain-His tag fusion protein; TIGIT protein; not shown: His tag

[4] = target: T2, TIGIT protein overexpressed on cells; assay: flow cytometry competition on 293T-TIGIT cells; blocked ligand CD155-mIgG2a-Fc, APC anti-mouse IgG2a, MFI
[5] = target: T1, Human TIGIT-His tag fusion protein; assay: competition ELISA on coated TIGIT-His; blocked ligand CD155-Biotin; the sheet does not name the species of the TIGIT-His
[6] = target: T4, recombinant TIGIT extracellular domain-Fc fusion protein; assay: SPR, Biacore T200, TIGIT-Fc amine-coupled on CM5, antibody injected, 1:1 Langmuir model
T4 construct: Covalently coupled to the CM5 chip in the Biacore assay; also called TIGIT-Fc
Protocol: The Biacore method is a well-established objective assay for detecting the affinity and kinetics between proteins. The TIGIT antibody of the present disclosure was analyzed using Biacore T200 to characterize its affinity and binding kinetics.
The TIGIT extracellular domain-Fc fusion protein (TIGIT-Fc) was covalently attached to a CM5 (GE) chip using a standard amino coupling method. A series of TIGIT antibodies diluted in PBS buffer at a concentration gradient was then injected in cycles, followed by regeneration with 10 mM NaOH solution. The antigen-antibody binding kinetics were monitored for 3 minutes, followed by dissociation kinetics for 10 minutes. The resulting data were analyzed using GE's BIAevaluation software in a 1:1 (Langmuir) binding model.

[7] = target: T2, TIGIT protein overexpressed on cells; assay: flow cytometry on CHO-K1-TIGIT cells, binding percentage (%)
[8] = target: T2, TIGIT protein overexpressed on cells; assay: flow cytometry competition on CHO-K1-TIGIT cells; blocked ligand CD155-mIgG2a-Fc, binding percentage (%)

EC50 (read off the curve) [1]: ~0.04 µg/mL | EC50 (read off the curve) [2]: ~0.4 µg/mL | EC50 (read off the curve) [3]: ~0.02 µg/mL | IC50 (read off the curve) [4]: ~0.5 µg/mL | IC50 (read off the curve) [5]: ~0.8 µg/mL
B1: H401LV2-hIgG1 (antibody)
heavy: not shown
light: DIVMTQSPSSMSTSVGDRVTITCRASQDVFNQVAWYQQKPGKSPKLLIYSASFRYTGVPDRFSGSGSGTDFTFTISSVQAEDFATYYCQQHYSTPLTFGAGTKLELKRTVAAPSVFIFPPSDEQLKSGTASVVCLLNNFYPREAKVQWKVDNALQSGNSQESVTEQDSKDSTYSLSSTLTLSKADYEKHKVYACEVTHQGLSSPVTKSFNRGEC
notes: Wild-type human IgG1 constant region, human kappa light chain (H401LV2-hK); also called TIGIT antibody H401LV2

EC50 (read off the curve) [1]: ~0.04 µg/mL | EC50 (read off the curve) [3]: ~0.02 µg/mL | IC50 (read off the curve) [4]: ~0.5 µg/mL | IC50 (read off the curve) [5]: ~0.8 µg/mL
B2: H401LV2-hIgG4S228P (antibody)
heavy: not shown
light: B1 light
notes: also called TIGIT antibody H401LV2

EC50 (read off the curve) [3]: ~0.04 µg/mL | Kd [6]: 5.06 nM | koff [6]: 0.000501 s⁻¹ | kon [6]: 98900 M⁻¹ s⁻¹ | IC50 (read off the curve) [5]: ~0.8 µg/mL
B3: Hu4A501 (antibody, V domains shown)
VH: QVQLQESGPGLVKPSQTLSLTCTVTGSSITSDYAWNWIRQFPGKKLEWMGYITYSGRTTYNPSLKSRITISRDTSKNQFSLKLSSVTAADTATYYCARWGLLRRYFDYWGQGTLLTVSS
VL: DIVMTQSPSSMSTSVGDRVTITCRASQDVFTAVAWYQQKPGKSPKLLIYSASFRYTGVPDRFSGSGSGTDFTFTISSVQAEDFATYYCQQHYSTPLTFGAGTKLELKR
notes: also called parental antibody Hu4A501; parent antibody Hu4A501

EC50 (read off the curve) [1]: ~0.04 µg/mL | EC50 (read off the curve) [2]: ~0.6 µg/mL | EC50 (read off the curve) [3]: ~0.02 µg/mL | IC50 (read off the curve) [4]: ~0.5 µg/mL | IC50 (read off the curve) [5]: ~0.8 µg/mL
B4: H401LV2-hIgG1LALA (antibody)
heavy: not shown
light: B1 light
notes: as for B2

EC50 (read off the curve) [7]: ~0.1 µg/mL | IC50 (read off the curve) [8]: ~0.3 µg/mL
B5: 4.1D3 (antibody, mouse IgG2a, kappa, V domains shown)
VH: EVQLQQSGPGLVKPSQTLSLTCAISGDSVSSNSAAWNWIRQSPSRGLEWLGKTYYRFKWYSDYAVSVKGRITINPDTSKNQFSLQLNSVTPEDTAVFYCTRESTTYDLLAGPFDYWGQGTLVTVSS
VL: not shown
notes: Comparator, made with mouse IgG2a heavy and mouse kappa light constant regions; also called 4.1D3-mIgG2a; 4.1D3 antibody

Kd [6]: ≤ 0.00508 nM | koff [6]: ≤ 1e-06 s⁻¹ | kon [6]: 197000 M⁻¹ s⁻¹
B6: H401LV2 (antibody, V domains shown)
VH: B3 VH
VL: DIVMTQSPSSMSTSVGDRVTITCRASQDVFNQVAWYQQKPGKSPKLLIYSASFRYTGVPDRFSGSGSGTDFTFTISSVQAEDFATYYCQQHYSTPLTFGAGTKLELK
notes: also called matured TIGIT antibody H401LV2

EC50 (read off the curve) [7]: ~0.05 µg/mL | IC50 (read off the curve) [8]: ~0.2 µg/mL
B7: H401LV2-mIgG2a (antibody)
heavy: QVQLQESGPGLVKPSQTLSLTCTVTGSSITSDYAWNWIRQFPGKKLEWMGYITYSGRTTYNPSLKSRITISRDTSKNQFSLKLSSVTAADTATYYCARWGLLRRYFDYWGQGTLLTVSSAKTTAPSVYPLAPVCGDTTGSSVTLGCLVKGYFPEPVTLTWNSGSLSSGVHTFPAVLQSDLYTLSSSVTVTSSTWPSQSITCNVAHPASSTKVDKKIEPRGPTIKPCPPCKCPAPNLLGGPSVFIFPPKIKDVLMISLSPIVTCVVVDVSEDDPDVQISWFVNNVEVHTAQTQTHREDYNSTLRVVSALPIQHQDWMSGKEFKCKVNNKDLPAPIERTISKPKGSVRAPQVYVLPPPEEEMTKKQVTLTCMVTDFMPEDIYVEWTNNGKTELNYKNTEPVLDSDGSYFMYSKLRVEKKNWVERNSYSCSVVHEGLHNHHTTKSFSRTPGK
light: DIVMTQSPSSMSTSVGDRVTITCRASQDVFNQVAWYQQKPGKSPKLLIYSASFRYTGVPDRFSGSGSGTDFTFTISSVQAEDFATYYCQQHYSTPLTFGAGTKLELKRADAAPTVSIFPPSSEQLTSGGASVVCFLNNFYPKDINVKWKIDGSERQNGVLNSWTDQDSKDSTYSMSSTLTLTKDEYERHNSYTCEATHKTSTSPIVKSFNRNEC
notes: Mouse IgG2a constant region, mouse kappa light chain (H401LV2-mK); also called TIGIT antibody H401LV2-mIgG2a

EC50 (read off the curve) [7]: ~0.2 µg/mL | IC50 (read off the curve) [8]: ~0.2 µg/mL
B8: 22G2 (antibody, mouse IgG2a, kappa, V domains shown)
VH: QVQLQESGPGLVKPSETLSLTCTVSGGSVSSGIYYWSWIRQPPGKGLEWIGYIYYSGSTNYNPSLKSRVTISVDTSKNQFSLKLSSVTAADTAVYYCARDYYVSGNYYNVDYYFFGVDVWGQGTTVTVSS
VL: EIVLTQSPATLSLSPGERATLSCRASQSVSSYLAWYQQKPGQAPRLLIYDASNRATGIPARFSGSGSGTDFTLTISSLEPEDFAVYYCQQRSNWPPLFTFGPGTKVDIKR
notes: Comparator, mouse IgG2a heavy and mouse kappa light constant regions; the printed heavy chain reads VVVAVSE (as in the D265A form) although it is named only mIgG2a; also called 22G2-mIgG2a; 22G2 antibody
